# Results: publication PMC11161652, “ASXLs binding to the PHD2/3 fingers of MLL4 provides a mechanism for the recruitment of BAP1 to active enhancers” (Nature Communications, 2024)
# B1: full-length ASXL2: full length wild type ASXL2 expressed in HEK293FT or K562 cells (protein)
# chain: MREKGRRKKGRTWAEAAKTVLEKYPNTPMSHKEILQVIQREGLKEIRSGTSPLACLNAMLHTNSRGEEGIFYKVPGRMGVYTLKKDVPDGVKELSEGSEESSDGQSDSQSSENSSSSSDGGSNKEGKKSRWKRKVSSSSPQSGCPSPTIPAGKVISPSQKHSKKALKQALKQQQQKKQQQQCRPSISISSNQHLSLKTVKAASDSVPAKPATWEGKQSDGQTGSPQNSNSSFSSSVKVENTLLGLGKKSFQRSERLHTRQMKRTKCADIDVETPDSILVNTNLRALINKHTFSVLPGDCQQRLLLLLPEVDRQVGPDGLMKLNGSALNNEFFTSAAQGWKERLSEGEFTPEMQVRIRQEIEKEKKVEPWKEQFFESYYGQSSGLSLEDSKKLTASPSDPKVKKTPAEQPKSMPVSEASLIRIVPVVSQSECKEEALQMSSPGRKEECESQGEVQPNFSTSSEPLLSSALNTHELSSILPIKCPKDEDLLEQKPVTSAEQESEKNHLTTASNYNKSESQESLVTSPSKPKSPGVEKPIVKPTAGAGPQETNMKEPLATLVDQSPESLKRKSSLTQEEAPVSWEKRPRVTENRQHQQPFQVSPQPFLNRGDRIQVRKVPPLKIPVSRISPMPFHPSQVSPRARFPVSITSPNRTGARTLADIKAKAQLVKAQRAAAAAAAAAAAAASVGGTIPGPGPGGGQGPGEGGEGQTARGGSPGSDRVSETGKGPTLELAGTGSRGGTRELLPCGPETQPQSETKTTPSQAQPHSVSGAQLQQTPPVPPTPAVSGACTSVPSPAHIEKLDNEKLNPTRATATVASVSHPQGPSSCRQEKAPSPTGPALISGASPVHCAADGTVELKAGPSKNIPNPSASSKTDASVPVAVTPSPLTSLLTTATLEKLPVPQVSATTAPAGSAPPSSTLPAASSLKTPGTSLNMNGPTLRPTSSIPANNPLVTQLLQGKDVPMEQILPKPLTKVEMKTVPLTAKEERGMGALIATNTTENSTREEVNERQSHPATQQQLGKTLQSKQLPQVPRPLQLFSAKELRDSSIDTHQYHEGLSKATQDQILQTLIQRVRRQNLLSVVPPSQFNFAHSGFQLEDISTSQRFMLGFAGRRTSKPAMAGHYLLNISTYGRGSESFRRTHSVNPEDRFCLSSPTEALKMGYTDCKNATGESSSSKEDDTDEESTGDEQESVTVKEEPQVSQSAGKGDTSSGPHSRETLSTSDCLASKNVKAEIPLNEQTTLSKENYLFTRGQTFDEKTLARDLIQAAQKQMAHAVRGKAIRSSPELFSSTVLPLPADSPTHQPLLLPPLQTPKLYGSPTQIGPSYRGMINVSTSSDMDHNSAVPGSQVSSNVGDVMSFSVTVTTIPASQAMNPSSHGQTIPVQAFSEENSIEGTPSKCYCRLKAMIMCKGCGAFCHDDCIGPSKLCVSCLVVR
# modifications: left off: Myc, end not stated, kept
# notes: full length wild type ASXL2 expressed in HEK293FT or K562 cells
# Tests used:
# [1] = test system: MLL4PHD2/3 or MLL3PHD2/3 mutants; experiment: GST pull-down, mutated MLL3/4PHD2/3; type: binding, human; conditions: mutated GST-MLL3/4PHD2/3; HEK293FT lysate, 3 h at 4 °C, western blot; n = 3
# Protocol: (§1) Pull-down assays were performed by mixing resin-bound GST-MLL3PHD2/3 and GST-MLL4PHD2/3 (wild type and mutants) with lysates of HEK293FT expressing Myc-ASXL1, Myc-ASXL2 or Myc-ASXL2ΔMBH. Pellets of HEK293FT cells transfected with the appropriate pDEST expression construct (15 μg/dish using polyethylenimine (PEI)) were lysed with 10 times their volume of lysis buffer (50 mM Tris pH 7.3, 100 mM NaCl, 1 mM DTT, 1 mM EDTA, 1 mM PMSF, 0.1% Tween20, 1/100 anti-protease (Sigma)) and sonicated with a probe sonicator (Branson digital sonifier 450) calibrated at 40% amplitude for 3–4 rounds during 40–60 s. Lysates were then centrifuged in a Sorvall Lynx 6000 (rotor: F21-8x50Y) at 15,000 RPM during 20 min. Approximatively 9 μg of purified GST-fusion proteins bound to GSH resin (Sigma, G4510) were used for each condition. Final volume of GSH resin was adjusted to 30 μl per condition with empty GSH beads and incubated with 1.5 mL of HEK293FT lysate expressing Myc-ASXL1, Myc-ASXL2 or Myc-ASXL2ΔMBH for 3 h at 4 °C on a rotative system. A fraction of the reaction mixture (80 μL) was collected as the input. After the incubation, beads were washed 5 times and mixed with 100 μL of Laemmli buffer. Samples were loaded on 8% or 15% SDS-acrylamide gels and processed for western blotting.
# [2] = test system: D372K/D400K MLL3PHD2/3 mutant; experiment: GST pull-down, D372K/D400K MLL3PHD2/3; type: binding, human; conditions: D372K/D400K GST-MLL3PHD2/3; HEK293FT lysate, western blot
# Protocol: as §1
# [3] = test system: GST-MLL4PHD2/3; experiment: GST pull-down, WT MLL4PHD2/3; type: binding, human; conditions: WT GST-MLL4PHD2/3; HEK293FT lysate, 3 h at 4 °C, western blot; n = 3
# Protocol: as §1
# [4] = test system: GST-MLL3PHD2/3; experiment: GST pull-down, WT MLL3PHD2/3; type: binding, human; conditions: WT GST-MLL3PHD2/3; HEK293FT lysate, 3 h at 4 °C, western blot; n = 3
# Protocol: as §1
# [5] = test system: PR-DUB complex; experiment: Tandem affinity purification: association with PR-DUB complex; type: cell-based, human; conditions: K562 soluble nuclear extracts, 3Flag-2Strep tag, western blot and mass spectrometry
# Protocol: (§2) Isogenic K562 cell lines expressing 3xFlag2xStrep-tagged ASXL2 WT and ΔMBH (aa 650-670), were generated by integration at the AAVS1 safe harbor locus after DSB induction and recombination targeted by co-transfection with a ZFN expression plasmid, as previously described. 2 × 10^5 cells were transfected with 400 ng of ZFN expression vector and 4 μg of donor constructs. Selection and cloning were performed in RPMI medium supplemented with 0.5 μg/mL puromycin starting 2–3 days post transfection. Clones were obtained by limiting dilution and expanded before harvest for western blot analysis.
# (§3) For purification of native complexes, after large-scale expansion of K562 clones, affinity purifications of tagged ASXL2 WT and ΔMBH (aa 650-670) were performed on nuclear extracts as previously described. Briefly, nuclear extracts were prepared following standard procedures and pre-cleared with CL6B Sepharose beads. […] Typically, 5–15 μl of the elutions (1–3% of total) was loaded on NuPAGE 4–12% Bis-Tris gels (Invitrogen) and analyzed by silver staining and western blots. […] Purified fractions were prepared and analyzed at the Proteomics Platform of the Quebec Genomic Center using an Orbitrap Fusion mass spectrometer (Thermo Fisher Scientific) as previously described. […]
# [6] = test system: MLL3/4 complexes; experiment: Tandem affinity purification: interaction with MLL3/4 complexes; type: cell-based, human; conditions: K562 soluble nuclear extracts, 3Flag-2Strep tag, western blot and mass spectrometry
# Protocol: as §2, §3
# [7] = test system: H3K4 (recombinant histone octamers or mono-nucleosomes); experiment: H3K4 histone methyltransferase assay; type: biochemical, human; conditions: purified complexes, 50 μM S-adenosyl-L-methionine, 8 h at 30 °C, n = 2
# Protocol: Equivalent amounts of purified ASXL2 WT and ΔMBH complexes were incubated with 0.5 μg of reconstituted recombinant mono-nucleosomes or histone octamers as substrates. All HMT assays were performed in 50 mM Tris-HCl pH 8, 100 mM KCl, 5 mM MgCl2, 0.1 mM DTT, 10% glycerol in the presence of 50 μM S-adenosyl-L-methionine (Sigma, A7007). After an 8 h incubation at 30 °C, 4X Laemmli buffer was added, the samples run on 15% SDS-PAGE and transferred on nitrocellulose membrane. Immunoblotting was performed with an anti-H3K4me1 (Ab8895, rabbit polyclonal) diluted 1:1000 followed by HRP conjugated secondary goat anti-rabbit antibody (Sigma) used at a 1:10,000 dilution. The immunoblots were visualized using a Western Lightning plus-ECL reagent (Perkin-Elmer). Anti-H4 (Abcam, Ab7311, rabbit polyclonal) was used at a 1:2,500 dilution.
# [8] = test system: active enhancer upstream of GRHL2 gene in K562 ASXL2 KD cells; experiment: ChIP-qPCR at active enhancer upstream of GRHL2; type: cell-based, human; conditions: K562 ASXL2 KD cells complemented from AAVS1; IP/input corrected for total H3; three biological replicates
# Text: K562 cell lines with knocked down expression of endogenous ASXL2 were obtained after double infection of lentivirus expressing Cas9 and 4 different gRNAs targeting the end of exon 1 (pLENTI_CRISPR_V2, co-selection by FACS with GFP). Clone 1 L was selected (obtained with gRNA 1: 5′-[…]-3′ cutting at the very end of exon 1) for transfection of WT and DMBH ASXL2 vectors for integration and stable expression from the AAVS1 safe harbor, as described for the tagged K562 cell lines used for purification. Expression levels of endogenous ASXL2, WT and ΔMBH ASXL2 were monitored by running SDS-PAGE and transferring onto nitrocellulose membrane. Anti-FLAG M2 conjugated to horseradish peroxidase (A8592, Sigma) was used at 1:10,000 dilution and anti-ASXL2, at 1:2,000 (Cell Signaling (E623X), CS71257, lot:1). Immunoblots were visualized using a Western Lightning plus ECL reagent (Perkin-Elmer).
# Crosslinked chromatin from K562 cells and immunoprecipitations were prepared as previously described. For chromatin immunoprecipitation, 100 μg of chromatin was incubated with 2 μg anti-H2AK119ub (Cell Signaling, 8240S, D27C4 lot:9) or 3 μg anti-H3 (Abcam, ab1791, lot GR3421644-1), 2 μg anti-H3Kme1 (Abcam, ab8895, lot GR442591-1), 2 μg anti-H3K27ac (Thermo Fisher, MA5-23516, lot: ZA4181671) or 0.3 μg anti-H3K27me3 (Cell Signaling, C36B11, 9733 S lot:19) antibodies overnight at 4 °C. 25 μl of Protein A Dynabeads were then added to each sample, and the mixtures were incubated at 4 °C for 4 h. The beads were washed extensively and eluted with 1% SDS and 0.1 M NaHCO3. Cross-linked samples were reversed by heating overnight at 65 °C in the presence of 0.2 M NaCl. Samples were then treated with RNase A and proteinase K for 2 h, and DNA was recovered using MinElute PCR purification Kit (Qiagen, 28004) according to the manufacturer’s instructions. Quantitative real-time PCR corrected for primer efficiencies in the linear range was performed using SYBR Green I (Roche, 04877352001) on a LightCycler 480 (Roche). Primers for 5′ end of active enhancer: Fwd: 5′-[…]; Rev: 5′-[…]; For 3′ end: Fwd: 5′-[…], Rev: 5′-[…].
# [9] = test system: H2AK119; experiment: H2AK119 deubiquitination assay; type: biochemical, human; conditions: purified complexes on human chromatin, 37 °C, 3 or 6 h, immunoblot
# Protocol: The deubiquitination reactions were done by adding equivalent amounts of ASXL2 WT or ΔMBH (4 μl E1-F) native complexes purified from K562 cells to 0.5 μg of chromatin enriched extracts from K562 cells, incubated at 37 °C in 50 mM Tris-HCl pH 7.3, 50 mM NaCl, 1 mM MgCl2, 1 mM DTT, 1 mM PMSF, 10 μg/ml Leupeptin, 10 μg/ml Pepstatin A, 25 μg/ml Aprotinin. After 3 or 6 h incubation, 4X Laemmli buffer was added, the samples run on 15% SDS-PAGE and transferred on nitrocellulose membrane. Immunoblotting was performed with an anti-H2AK119ub (Cell Signaling, D27C4, rabbit polyclonal) diluted 1:2000 followed by HRP conjugated secondary goat anti-rabbit antibody (Sigma) used at a 1:10,000 dilution. The immunoblots were visualized using a Western Lightning plus-ECL reagent (Perkin-Elmer). Anti-H3 (Abcam, Ab1791, rabbit polyclonal) was used at a 1:50,000 dilution.
# Cell pellets were harvested 2 days post-transfection and lysed with 10 times their own volume with EB300 lysis buffer (50 mM Tris pH 7.3, 300 mM NaCl, 0.5% Triton X100 (V/V), 5 mM EDTA, 50 mM NaF, 1 mM Na3VO4 (activated), 10 mM Beta-glycerol-phosphate, 1 mM DTT, 1 mM PMSF, 1/100 anti-protease (Sigma)). Lysates were incubated on ice for 30 min before centrifugation in a Sorvall Lynx 6000 (rotor: F21-8x50Y) at 15,000 RPM during 20 min. Supernatants were collected and diluted with EB0 (50 mM Tris pH 7.3, 0.5% Triton X100 (V/V), 5 mM EDTA, 50 mM NaF, 1 mM Na3VO4, 10 mM Beta-glycerol-phosphate, 1 mM DTT, 1 mM PMSF, 1/100 anti-protease) to adjust the final concentration of NaCl to 150 mM. Agarose anti-FlagM2 beads (40 μL) (Sigma, A2220) were added to each lysate and incubated overnight at 4 °C on a rotative system. The next day, beads were washed 5 times with the wash buffer (50 mM Tris pH 7.3, 150 mM NaCl, 0.5% Triton X100 (V/V), 1/500 anti-protease, 1 mM DTT, 1 mM PMSF). […] Following three elutions of 2 h each, the pooled fractions were incubated with 40 μL of anti-HA beads (Sigma A2095) overnight at 4 °C on a rotative system. […]
molecule,measurement,setting,value
B1,association in pull-down,[1],not with the MLL4PHD2/3 or MLL3PHD2/3 mutants
same,association in pull-down,[2],unable to bind full-length ASXL2
same,association in pull-down,[3],detected
same,association in pull-down,[4],detected
same,association with PR-DUB complex,[5],stably associates with the expected components of the PR-DUB complex
same,interaction with MLL3/4 complexes,[6],co-fractionation of the PR-DUB complex with the components of the MLL3/4 complexes
same,mono-methylation of H3K4,[7],clearly detected
same,H2AK119ub level,[8],decrease in H2AK119ub level at this enhancer
same,H3K4me1 level,[8],not affected
same,de-ubiquitination of H2AK119,[9],efficient and equivalent de-ubiquitination of H2AK119
